T1: rat Kv4.2 α-subunit (rat, UniProt Q63881 1-630)
T1 construct: whole, on cells; also called rKv4.2
T1 sequence (looked up): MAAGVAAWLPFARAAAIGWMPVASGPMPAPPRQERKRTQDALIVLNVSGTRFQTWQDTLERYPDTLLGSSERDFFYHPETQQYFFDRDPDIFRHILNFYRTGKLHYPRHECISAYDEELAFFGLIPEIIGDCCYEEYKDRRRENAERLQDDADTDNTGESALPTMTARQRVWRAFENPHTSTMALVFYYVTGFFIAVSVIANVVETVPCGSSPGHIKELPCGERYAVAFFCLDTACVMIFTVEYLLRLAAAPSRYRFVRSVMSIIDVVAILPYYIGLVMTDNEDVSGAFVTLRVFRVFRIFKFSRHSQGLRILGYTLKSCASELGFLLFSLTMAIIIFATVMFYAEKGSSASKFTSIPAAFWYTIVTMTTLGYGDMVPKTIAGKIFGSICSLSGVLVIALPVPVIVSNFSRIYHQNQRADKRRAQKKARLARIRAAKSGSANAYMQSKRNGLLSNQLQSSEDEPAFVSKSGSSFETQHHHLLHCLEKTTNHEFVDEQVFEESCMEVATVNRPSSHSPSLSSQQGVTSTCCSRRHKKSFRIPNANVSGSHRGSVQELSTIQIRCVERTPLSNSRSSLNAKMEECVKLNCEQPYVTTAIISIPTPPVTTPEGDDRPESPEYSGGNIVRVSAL

T2: Kv2.1 (rat brain membranes) (rat, UniProt P15387 1-857)
T2 sequence (looked up): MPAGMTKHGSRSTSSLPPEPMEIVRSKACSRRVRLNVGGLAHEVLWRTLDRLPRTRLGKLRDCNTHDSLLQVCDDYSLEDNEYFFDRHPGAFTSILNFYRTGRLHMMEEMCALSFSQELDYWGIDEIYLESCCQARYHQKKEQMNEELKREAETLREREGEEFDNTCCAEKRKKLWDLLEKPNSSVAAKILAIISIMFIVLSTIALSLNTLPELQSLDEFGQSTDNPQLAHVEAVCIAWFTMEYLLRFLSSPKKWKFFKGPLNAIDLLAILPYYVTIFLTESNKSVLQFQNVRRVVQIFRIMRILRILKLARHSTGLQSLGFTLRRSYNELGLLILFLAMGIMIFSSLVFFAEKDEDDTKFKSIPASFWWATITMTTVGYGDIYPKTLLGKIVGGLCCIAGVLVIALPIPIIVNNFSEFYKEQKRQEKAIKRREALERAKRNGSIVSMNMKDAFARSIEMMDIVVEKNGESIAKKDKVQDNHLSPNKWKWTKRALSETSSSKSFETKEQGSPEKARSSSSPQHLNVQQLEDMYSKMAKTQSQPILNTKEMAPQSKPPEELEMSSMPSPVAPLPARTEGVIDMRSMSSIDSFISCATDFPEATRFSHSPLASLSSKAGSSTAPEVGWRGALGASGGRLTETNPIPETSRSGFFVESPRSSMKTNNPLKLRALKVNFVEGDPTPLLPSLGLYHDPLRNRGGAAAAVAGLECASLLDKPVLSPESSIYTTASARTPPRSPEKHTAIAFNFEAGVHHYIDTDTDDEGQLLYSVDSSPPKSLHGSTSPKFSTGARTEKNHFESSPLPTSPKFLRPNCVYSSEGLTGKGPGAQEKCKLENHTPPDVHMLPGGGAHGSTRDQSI

T3: rat 1p (rat, UniProt B9EHT4 181-427 (mouse entry), limits assumed)
T3 construct: Partial-length clone, two-hybrid prey; also called Ip; lp
T3 sequence: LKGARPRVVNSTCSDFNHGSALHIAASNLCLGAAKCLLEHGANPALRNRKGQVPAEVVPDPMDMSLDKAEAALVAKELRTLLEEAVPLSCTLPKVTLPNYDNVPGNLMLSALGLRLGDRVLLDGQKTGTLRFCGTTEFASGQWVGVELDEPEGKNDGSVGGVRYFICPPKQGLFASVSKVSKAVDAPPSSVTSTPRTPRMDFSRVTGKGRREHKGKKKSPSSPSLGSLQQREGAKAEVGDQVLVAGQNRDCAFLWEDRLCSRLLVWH

T4: rat 19r (rat, UniProt P16446 1-271, limits assumed)
T4 construct: also called partial rat 19r; phosphatidylinositol transfer protein alpha
T4 sequence: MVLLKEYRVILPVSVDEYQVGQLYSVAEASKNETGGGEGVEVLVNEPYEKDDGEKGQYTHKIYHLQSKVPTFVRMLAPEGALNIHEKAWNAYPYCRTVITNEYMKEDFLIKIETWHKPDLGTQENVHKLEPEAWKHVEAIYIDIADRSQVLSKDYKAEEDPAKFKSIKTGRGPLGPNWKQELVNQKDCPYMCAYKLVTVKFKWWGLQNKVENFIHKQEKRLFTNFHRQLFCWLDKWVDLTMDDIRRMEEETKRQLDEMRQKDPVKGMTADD

B1: rat 9qm (other)
chain: MRGQGRKESLSESRDLDGSYDQLTGHPPGPSKKALKQRFLKLLPCCGPQALPSVSENSVEDEFELSTVCHRPEGLEQLQEQTKFTRRELQVLYRGFKNECPSGIVNEENFKQIYSQFFPQGDSSNYATFLFNAFDTNHDGSVSFEDFVAGLSVILRGTIDDRLSWAFNLYDLNKDGCITKEEMLDIMKSIYDMMGKYTYPALREEAPREHVESFFQKMDRNKDGVVTIEEFIESCQQDENIMRSMQLFDNVI
B2: rat 33b07 (other)
chain: MNGVEGNNELPLANTSTSALVPEDLDLKQDQPLSEETDTVREMEAAGEAGAEGGASPDSEHCDPQLCLRVAENGCAAAAGEGLEDGLSSSKCGDAPLASVAANDSNKNGCQLAGPLSPAKPKTLEASGAVGLGSQMMPGPKKTKVMTTKGAISATTGKEGEAGAAMQEKKGVQKEKKAAGGGKDETRPRAPKINNCMDSLEAIDQELSNVNAQADRAFLQLERKFGRMRRLHMQRRSFIIQNIPGFWVTAFRNHPQLSPMISGQDEDMMRYMINLEVEELKHPRAGCKFKFIFQSNPYFRNEGLVKEYERRSSGRVVSLSTPIRWHRGQEPQAHIHRNREGNTIPSFFNWFSDHSLLEFDRIAEIIKGELWSNPLQYYLMGDGPRRGVRVPPRQPVESPRSFRFQSG
notes: also called partial rat 33b07 (clone name 9o)
B3: KChIP3 of rat brain membranes (other, UniProt Q9JM47 1-256, looked up)
chain: MQRTKEAMKASDGSLLGDPGRIPLSKREGIKWQRPRFTRQALMRCCLIKWILSSAAPQGSDSSDSELELSTVRHQPEGLDQLQAQTKFTKKELQSLYRGFKNECPTGLVDEDTFKLIYSQFFPQGDATTYAHFLFNAFDADGNGAIHFEDFVVGLSILLRGTVHEKLKWAFNLYDINKDGYITKEEMLAIMKSIYDMMGRHTYPILREDAPLEHVERFFQKMDRNQDGVVTIDEFLETCQKDENIMSSMQLFENVI
notes: also called PCIPs (KChIPs 1, 2, and 3)
B4: rat 29x (other)
chain: ARLPAPEHARQQPLLSGPEPGSSARVPVPGVASRRQPRGGKPPSGDGLESGPSPRPLLHARGEAGLHRQSGRVPHTGTAYFADEPTEAQAPGGFCVSPSLLGVRWPACATRTPGSLPLSPPSAQPRTLWPTPPAGPSSRMVARNQVAADNAISPASEPRRRPEPSSSSSSSSPAAPARPRPCPVVPAPAPGDTHFRTFRSHSDYRRITRTSALLDACGFYWGPLSVHGAHERLRAEPVGTFLVRDSRQRNCFFALSVKMASGPTSIRVHFQAGRFHLDGSRETFDCLFELLEHYVAAPRRMLGAPLRQRRVRPLQELCRQRIVAAVGRENLARIPLNPVLRDYLSSFPFQI
notes: Two-hybrid prey; also called SOCS-1; JAB
B5: rat 1v (other)
chain: MPARVLLAYPGTEMLTQGESEGLQTLGIVVVLCSSLKLLHYLGLIDLSDDKIEDDLEMTMVCHRPEGLEQLEAQTNFTKRELQVLYRGFKNECPSGVVNEETFKQIYAQFFPHGDASTYAHYLFNAFDTTQTGSVKFEDFVTALSILLRGTVHEKLRWTFNLYDINKDGYINKEEMMDIVKAIYDMMGKYTYPVLKEDTPRQHVDVFFQKMDKNKDGIVTLDEFLESCQEDDNIMRSLQLFQNVM
notes: also called KChIP1; KchIP1
B6: KChIP2 of rat brain membranes (other, UniProt Q9JM59 1-270, looked up)
chain: MRGQGRKESLSESRDLDGSYDQLTGHPPGPSKKALKQRFLKLLPCCGPQALPSVSETLAAPASLRPHRPRPLDPDSVEDEFELSTVCHRPEGLEQLQEQTKFTRRELQVLYRGFKNECPSGIVNEENFKQIYSQFFPQGDSSNYATFLFNAFDTNHDGSVSFEDFVAGLSVILRGTIDDRLSWAFNLYDLNKDGCITKEEMLDIMKSIYDMMGKYTYPALREEAPREHVESFFQKMDRNKDGVVTIEEFIESCQQDENIMRSMQLFDNVI
notes: as for B3
B7: rKv1.1N (other, rat, UniProt P10499 1-164, looked up)
chain: MTVMSGENADEASAAPGHPQDGSYPRQADHDDHECCERVVINISGLRFETQLKTLAQFPNTLLGNPKKRMRYFDPLRNEYFFDRNRPSFDAILYYYQSGGRLRRPVNVPLDMFSEEIKFYELGEEAMEKFREDEGFIKEEERPLPEKEYQRQVWLLFEYPESSG
notes: Bait of the specificity test; the construct is not described; also called Kv1.1 subunits; rKvl.iN
B8: rat 5p (other)
chain: MPSQMEHAMETMMLTFHRFAGEKNYLTKEDLRVLMEREFPGFLENQKDPLAVDKIMKDLDQCRDGKVGFQSFLSLVAGLIIACNDYFVVHMKQKK
notes: Two-hybrid prey; also called Calpactin I light chain; P10
B9: rat 7q (other)
chain: MAYAYLFKYIIIGDTGVGKSCLLLQFTDKRFQPVHDLTIGVEFGARMITIDGKQIKLQIWDTAGQESFRSITRSYYRGAAGALLVYDITRRDTFNHLTTWLEDARQHSNSNMVIMLIGNKSDLESRREVKKEEGEAFAREHGLIFMETSAKTASNVEEAFINTAKEIYEKIQEGVFDINNEANGIKIGPQHAATNASHGGNQGGQQAGGGCC
notes: Two-hybrid prey; The full length was obtained by RACE PCR; also called RAB2

Columns and labels:
rat Kv4.2 α-subunit [1] = molecular target: T1, rat Kv4.2 α-subunit; experiment: immunoprecipitation from rat brain membranes
rKv1.1N = molecular target: B7; experiment: yeast two-hybrid
[2] = molecular target: T2, Kv2.1 (rat brain membranes); experiment: co-immunoprecipitation from rat brain synaptic membranes
rat Kv4.2 α-subunit [3] = molecular target: T1, rat Kv4.2 α-subunit; experiment: cell-based or functional assay
rat 1p = molecular target: T3, rat 1p; experiment: yeast two-hybrid
rat 19r = molecular target: T4, rat 19r; experiment: yeast two-hybrid
rat 7s = molecular target: T5, rat 7s (rat, UniProt P50516 348-617 (mouse entry), limits assumed); experiment: yeast two-hybrid
T5 construct: Partial-length clone, two-hybrid prey; Rat ortholog of the vacuolar H(+)-ATPase catalytic subunit A
T5 sequence (P50516 348-617 limits assumed): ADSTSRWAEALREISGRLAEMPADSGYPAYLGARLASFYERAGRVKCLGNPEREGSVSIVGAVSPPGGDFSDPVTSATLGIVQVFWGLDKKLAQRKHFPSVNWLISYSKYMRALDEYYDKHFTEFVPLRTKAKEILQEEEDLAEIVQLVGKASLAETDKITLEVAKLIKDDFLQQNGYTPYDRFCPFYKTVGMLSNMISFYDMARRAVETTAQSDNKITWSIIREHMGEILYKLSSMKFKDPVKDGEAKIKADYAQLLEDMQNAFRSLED

binding result (rKv1.1N)	binding result [2]	further results	Binder
		binding result (rat Kv4.2 α-subunit [1]): binds	B1
no binding			B2
	no binding		B3
no binding			B4
	no binding	Kv4.2 current density in CHO cells, fold increase with coexpression of KChIP1 (rat Kv4.2 α-subunit [3]): 12 fold; amplitude of the Kv4.2 current in CHO cells, fold increase in the presence of KChIP1 (rat Kv4.2 α-subunit [3]): ~7.5 fold	B5
	no binding		B6
		binding result (rat 1p): no binding; binding result (rat 19r): no binding; binding result (rat 7s): no binding	B7
no binding			B8
no binding			B9
